Source: paper PMC2606963

Tests used:
[1] = target: dynamic microtubules grown in buffer from purified (tyrosinated) tubulin (pig) (UniProt P02550); assay: single-molecule TIRF microscopy on dynamic microtubules
[2] = target: dynamic microtubules grown in buffer from detyrosinated tubulin (tubulinΔY) (pig) (UniProt P02550); assay: TIRF microscopy on dynamic microtubules

EB1-GFP (full-length X. laevis EB1 fused to GFP) (natural protein)
mean single molecule dwell time at growing microtubule ends [1]: 0.05 s

H2-GFP (GFP-tagged H2 fragment of CLIP-170) (domain or fragment)
mean dwell time at growing microtubule ends [1]: 0.25 s | percent reduction of end binding against microtubules of tyrosinated tubulin [2]: 87%
